PMC4631650 (Current biology : CB, 2015)
Residue numbers refer to the chain shown, from its start. Names and notes keep the numbering of the source.

B1: RECQ1-WT (full-length His-tagged human RECQ1) (enzyme, UniProt P46063 1-649, looked up)
chain: MASVSALTEELDSITSELHAVEIQIQELTERQQELIQKKKVLTKKIKQCLEDSDAGASNEYDSSPAAWNKEDFPWSGKVKDILQNVFKLEKFRPLQLETINVTMAGKEVFLVMPTGGGKSLCYQLPALCSDGFTLVICPLISLMEDQLMVLKQLGISATMLNASSSKEHVKWVHAEMVNKNSELKLIYVTPEKIAKSKMFMSRLEKAYEARRFTRIAVDEVHCCSQWGHDFRPDYKALGILKRQFPNASLIGLTATATNHVLTDAQKILCIEKCFTFTASFNRPNLYYEVRQKPSNTEDFIEDIVKLINGRYKGQSGIIYCFSQKDSEQVTVSLQNLGIHAGAYHANLEPEDKTTVHRKWSANEIQVVVATVAFGMGIDKPDVRFVIHHSMSKSMENYYQESGRAGRDDMKADCILYYGFGDIFRISSMVVMENVGQQKLYEMVSYCQNISKCRRVLMAQHFDEVWNSEACNKMCDNCCKDSAFERKNITEYCRDLIKILKQAEELNEKLTPLKLIDSWMGKGAAKLRVAGVVAPTLPREDLEKIIAHFLIQQYLKEDYSFTAYATISYLKIGPKANLLNNEAHAITMQVTKSTQNSFRAESSQTCHSEQGDKKMEEKNSGNFQKKAANMLQQSGSKNTGAKKRKIDDA
B2: RECQ1-W227A (full-length His-tagged human RECQ1 aromatic loop mutant) (enzyme, UniProt P46063 1-649, looked up)
chain: B1 chain with W227A
B3: RECQ1-F231A (full-length His-tagged human RECQ1 aromatic loop mutant) (enzyme, UniProt P46063 1-649, looked up)
chain: B1 chain with F231A

Molecular target: the molecule itself
Test: SEC

Binding result, binds:
B1
B2
B3
